Laboratory results: paper PMC9241813, “SGK1, a Serine/Threonine Kinase, Inhibits Prototype Foamy Virus Replication” (Microbiology Spectrum, 2022)

Target: the molecule itself
Assay: cross-linking; HEK293T cells transfected with Flag-Tas and empty vector or HA-SGK1; lysate supernatant incubated with cross-linking buffer at room temperature for 30 min; Western blot

B1: prototype foamy virus Tas protein (Flag-Tas) (natural protein)
chain: MDSYEKEESVASTSGIQDLQTLSELVGPENAGEGELTIAEEPEENPRRPRRYTKREVKCVSYHAYKEIEDKHPQHIKLQDWIPTPEEMSKSLCKRLILCGLYSAEKASEILRMPFTVSWEQSDTDPDCFIVSYTCIFCDAVIHDPMPIRWDPEVGIWVKYKPLRGIVGSAVFIMHKHQRNCSLVKPSTSCSEGPKPRPRHDPVLRCDMFEKHHKPRQKRPRRRSIDNESCASSSDTMANEPGSLCTNPLWNPGPLLSGLLEESSNLPNLEVHMSGGPFWEEVYGDSILGPPSGSGEHSVL
notes: also called PFV Tas; Myc-Tas; source: HEK293T, transfected, in lysate
stoichiometry N: 2
